Measurements published in the supplement of paper PMC10065799, “High-throughput profiling of sequence recognition by tyrosine kinases and SH2 domains using bacterial peptide display” (eLife, 2023).

How the values were obtained:
AncSZ = experiment: phosphorylation enrichment, bacterial display (enrichment ratio); higher = better substrate or ligand; peptides without Tyr show the background
Fyn = Fyn (UniProt P06241); experiment: as above
FGFR1 = FGFR1 (UniProt P11362); experiment: as above
EPHB1 = EPHB1 (UniProt P54762); experiment: as above
c-Src = experiment: as above
Fer (mouse) = experiment: as above
Fes = Fes (UniProt P07332); experiment: as above
c-Abl (mouse) = experiment: as above
Jak2 = Jak2 (UniProt O60674); experiment: as above
MERTK = MERTK (UniProt Q12866); experiment: as above
FGFR3 = FGFR3 (UniProt P22607); experiment: as above
EPHB2 = EPHB2 (UniProt P29323); experiment: as above
Hck = Hck (UniProt P08631); experiment: as above
Grb2 SH2 = Grb2 SH2 (UniProt P62993); experiment: SH2 binding enrichment of the phosphorylated peptide, bacterial display (enrichment ratio); higher = better substrate or ligand; peptides without Tyr show the background
SHP2-C SH2 = experiment: as above
c-Src SH2 = experiment: as above
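Wherever SH2 binding enrichment of the phosphorylated peptide, bacterial display is given: peptide library displayed on the E. coli surface as eCPX fusions, selected cells deep-sequenced, score is each peptide's frequency after selection divided by its frequency in the input.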
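Wherever phosphorylation enrichment, bacterial display is given: 11-residue human phosphosite peptides and single-mutation variants displayed on the E. coli surface, counted by deep sequencing, each peptide's frequency after selection divided by its frequency in the unselected input library; frequency after pTyr selection over input frequency; kinase dosed for 20-30% of maximal phosphorylation in three min.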

Fyn, sequence (P06241 whole entry, looked up): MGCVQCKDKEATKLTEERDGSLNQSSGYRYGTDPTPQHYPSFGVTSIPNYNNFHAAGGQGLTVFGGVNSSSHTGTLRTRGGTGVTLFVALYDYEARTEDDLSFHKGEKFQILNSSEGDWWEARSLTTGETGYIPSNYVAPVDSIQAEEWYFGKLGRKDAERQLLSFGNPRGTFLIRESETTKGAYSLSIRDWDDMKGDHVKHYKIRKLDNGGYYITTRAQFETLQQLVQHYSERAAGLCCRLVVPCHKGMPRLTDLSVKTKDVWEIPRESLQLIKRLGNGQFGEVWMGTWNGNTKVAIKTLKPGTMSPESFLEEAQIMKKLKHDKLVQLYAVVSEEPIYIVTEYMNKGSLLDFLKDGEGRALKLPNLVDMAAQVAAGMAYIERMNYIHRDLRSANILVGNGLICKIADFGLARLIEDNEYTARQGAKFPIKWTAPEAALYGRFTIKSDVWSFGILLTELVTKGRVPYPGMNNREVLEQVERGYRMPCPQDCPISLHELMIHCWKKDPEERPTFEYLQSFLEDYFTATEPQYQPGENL
FGFR3, sequence (P22607 whole entry, looked up): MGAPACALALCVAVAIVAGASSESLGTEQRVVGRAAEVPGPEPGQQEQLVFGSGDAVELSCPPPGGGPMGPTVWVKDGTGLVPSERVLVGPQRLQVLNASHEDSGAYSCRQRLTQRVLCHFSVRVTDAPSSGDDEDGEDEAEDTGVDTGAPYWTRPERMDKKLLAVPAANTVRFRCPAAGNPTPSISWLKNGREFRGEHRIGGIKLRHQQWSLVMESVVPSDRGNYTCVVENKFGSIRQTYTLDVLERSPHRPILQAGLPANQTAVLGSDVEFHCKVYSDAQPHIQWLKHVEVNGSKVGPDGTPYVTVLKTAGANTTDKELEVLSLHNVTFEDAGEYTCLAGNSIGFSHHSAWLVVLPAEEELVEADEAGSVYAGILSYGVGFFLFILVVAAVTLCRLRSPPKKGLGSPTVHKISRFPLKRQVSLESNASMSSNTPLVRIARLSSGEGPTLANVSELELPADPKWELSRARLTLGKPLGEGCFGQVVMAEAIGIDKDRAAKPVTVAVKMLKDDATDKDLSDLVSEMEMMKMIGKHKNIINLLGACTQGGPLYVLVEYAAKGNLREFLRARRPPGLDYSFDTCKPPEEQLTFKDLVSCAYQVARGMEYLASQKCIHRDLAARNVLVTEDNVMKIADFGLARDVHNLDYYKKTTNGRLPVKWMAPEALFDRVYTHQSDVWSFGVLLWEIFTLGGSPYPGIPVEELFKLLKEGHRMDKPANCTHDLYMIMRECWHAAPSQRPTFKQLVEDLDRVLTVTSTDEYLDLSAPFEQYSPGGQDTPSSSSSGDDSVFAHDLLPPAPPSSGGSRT
Grb2 SH2, sequence (P62993 whole entry, looked up): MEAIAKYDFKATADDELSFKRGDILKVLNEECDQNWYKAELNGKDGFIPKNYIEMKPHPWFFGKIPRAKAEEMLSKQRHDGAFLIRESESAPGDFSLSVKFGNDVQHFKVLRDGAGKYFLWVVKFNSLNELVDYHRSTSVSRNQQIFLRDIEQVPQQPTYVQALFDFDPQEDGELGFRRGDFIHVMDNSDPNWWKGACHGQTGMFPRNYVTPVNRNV
Fes, sequence (P07332 whole entry, looked up): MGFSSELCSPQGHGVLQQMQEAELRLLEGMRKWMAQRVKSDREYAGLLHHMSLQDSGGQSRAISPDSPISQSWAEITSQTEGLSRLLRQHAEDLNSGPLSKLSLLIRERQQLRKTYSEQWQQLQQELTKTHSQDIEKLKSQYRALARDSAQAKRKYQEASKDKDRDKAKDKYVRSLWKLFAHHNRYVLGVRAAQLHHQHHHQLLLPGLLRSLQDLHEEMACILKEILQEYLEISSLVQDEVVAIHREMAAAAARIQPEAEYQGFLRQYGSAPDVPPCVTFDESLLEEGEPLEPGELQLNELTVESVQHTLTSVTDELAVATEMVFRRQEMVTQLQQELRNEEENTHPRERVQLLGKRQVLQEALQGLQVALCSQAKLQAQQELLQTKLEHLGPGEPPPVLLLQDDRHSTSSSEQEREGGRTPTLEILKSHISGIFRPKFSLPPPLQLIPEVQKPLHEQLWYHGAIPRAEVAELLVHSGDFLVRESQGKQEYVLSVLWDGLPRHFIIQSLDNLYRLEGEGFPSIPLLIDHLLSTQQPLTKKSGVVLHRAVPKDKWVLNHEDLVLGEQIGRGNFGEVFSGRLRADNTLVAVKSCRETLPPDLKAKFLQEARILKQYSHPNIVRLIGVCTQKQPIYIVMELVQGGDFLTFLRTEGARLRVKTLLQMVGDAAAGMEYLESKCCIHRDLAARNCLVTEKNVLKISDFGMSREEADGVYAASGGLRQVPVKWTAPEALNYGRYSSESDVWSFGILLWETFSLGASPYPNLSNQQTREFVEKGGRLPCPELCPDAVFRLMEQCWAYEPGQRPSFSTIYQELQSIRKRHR
FGFR1, sequence (P11362 whole entry, looked up): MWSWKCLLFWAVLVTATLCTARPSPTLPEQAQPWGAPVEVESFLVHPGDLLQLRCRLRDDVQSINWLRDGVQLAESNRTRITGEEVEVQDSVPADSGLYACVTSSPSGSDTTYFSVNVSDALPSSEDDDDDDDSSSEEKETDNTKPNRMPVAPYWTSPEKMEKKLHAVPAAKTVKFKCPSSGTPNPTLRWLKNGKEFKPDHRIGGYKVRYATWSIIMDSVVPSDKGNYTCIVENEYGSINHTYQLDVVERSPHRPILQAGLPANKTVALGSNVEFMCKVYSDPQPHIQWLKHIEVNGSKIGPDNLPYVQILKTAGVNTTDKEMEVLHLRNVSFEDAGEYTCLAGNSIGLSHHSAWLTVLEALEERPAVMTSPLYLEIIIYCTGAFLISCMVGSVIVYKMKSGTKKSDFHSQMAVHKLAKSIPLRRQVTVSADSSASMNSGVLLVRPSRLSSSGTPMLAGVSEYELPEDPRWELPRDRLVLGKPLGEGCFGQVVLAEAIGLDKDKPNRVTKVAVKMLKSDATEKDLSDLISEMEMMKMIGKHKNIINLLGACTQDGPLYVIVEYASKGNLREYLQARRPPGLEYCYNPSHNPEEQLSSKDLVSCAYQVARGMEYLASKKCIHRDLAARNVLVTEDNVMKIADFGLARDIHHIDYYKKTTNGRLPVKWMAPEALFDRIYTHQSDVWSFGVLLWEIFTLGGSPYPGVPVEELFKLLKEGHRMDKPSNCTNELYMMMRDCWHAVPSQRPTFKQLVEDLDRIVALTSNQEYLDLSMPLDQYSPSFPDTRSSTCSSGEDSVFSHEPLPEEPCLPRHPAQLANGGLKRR
EPHB2, sequence (P29323 whole entry, looked up): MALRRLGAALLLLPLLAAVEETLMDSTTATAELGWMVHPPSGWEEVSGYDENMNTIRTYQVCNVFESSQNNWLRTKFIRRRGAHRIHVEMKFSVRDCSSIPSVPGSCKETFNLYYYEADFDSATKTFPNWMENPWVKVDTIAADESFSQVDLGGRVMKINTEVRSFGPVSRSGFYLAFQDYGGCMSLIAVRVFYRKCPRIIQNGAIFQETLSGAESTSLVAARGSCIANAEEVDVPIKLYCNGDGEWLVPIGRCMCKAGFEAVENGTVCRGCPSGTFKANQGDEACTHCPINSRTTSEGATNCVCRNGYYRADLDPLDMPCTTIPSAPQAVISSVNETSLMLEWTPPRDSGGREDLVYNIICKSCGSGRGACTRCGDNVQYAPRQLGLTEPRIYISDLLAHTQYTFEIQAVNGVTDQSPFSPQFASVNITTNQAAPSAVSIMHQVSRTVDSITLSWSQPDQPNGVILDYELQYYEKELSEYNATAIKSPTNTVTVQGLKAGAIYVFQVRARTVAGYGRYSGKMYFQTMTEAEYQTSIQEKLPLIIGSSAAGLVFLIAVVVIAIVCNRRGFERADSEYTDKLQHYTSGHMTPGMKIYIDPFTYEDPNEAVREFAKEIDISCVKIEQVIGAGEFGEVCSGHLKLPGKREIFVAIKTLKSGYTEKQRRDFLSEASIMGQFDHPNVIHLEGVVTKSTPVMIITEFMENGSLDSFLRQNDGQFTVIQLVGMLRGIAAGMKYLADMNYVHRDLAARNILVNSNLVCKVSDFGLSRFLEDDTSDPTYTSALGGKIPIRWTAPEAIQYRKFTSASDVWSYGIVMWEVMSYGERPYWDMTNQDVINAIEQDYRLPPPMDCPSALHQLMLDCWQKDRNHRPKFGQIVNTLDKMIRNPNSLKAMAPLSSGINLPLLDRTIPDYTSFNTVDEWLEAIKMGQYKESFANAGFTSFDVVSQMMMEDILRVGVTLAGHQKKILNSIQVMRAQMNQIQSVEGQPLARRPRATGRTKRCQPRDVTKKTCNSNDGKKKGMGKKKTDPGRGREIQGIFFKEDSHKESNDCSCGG
Hck, sequence (P08631 whole entry, looked up): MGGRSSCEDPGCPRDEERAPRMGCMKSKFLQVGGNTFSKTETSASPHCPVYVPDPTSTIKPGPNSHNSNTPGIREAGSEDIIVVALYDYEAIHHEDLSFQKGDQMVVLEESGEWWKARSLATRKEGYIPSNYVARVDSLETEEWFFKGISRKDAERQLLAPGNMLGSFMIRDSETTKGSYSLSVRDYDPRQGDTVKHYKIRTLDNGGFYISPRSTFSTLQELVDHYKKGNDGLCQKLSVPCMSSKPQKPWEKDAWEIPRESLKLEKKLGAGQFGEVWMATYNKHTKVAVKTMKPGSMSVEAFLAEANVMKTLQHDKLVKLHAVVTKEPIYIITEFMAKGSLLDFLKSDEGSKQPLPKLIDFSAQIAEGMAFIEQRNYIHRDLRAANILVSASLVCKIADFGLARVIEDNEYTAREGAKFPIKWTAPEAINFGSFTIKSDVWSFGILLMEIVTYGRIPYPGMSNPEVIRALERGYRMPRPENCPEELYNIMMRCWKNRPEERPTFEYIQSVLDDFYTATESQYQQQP

Sequence	phosphorylation enrichment (AncSZ)	phosphorylation enrichment (Fyn)	phosphorylation enrichment (FGFR1)	phosphorylation enrichment (EPHB1)	phosphorylation enrichment (c-Src)	phosphorylation enrichment (Fer (mouse))	phosphorylation enrichment (Fes)	phosphorylation enrichment (c-Abl (mouse))	phosphorylation enrichment (Jak2)	phosphorylation enrichment (MERTK)	phosphorylation enrichment (FGFR3)	phosphorylation enrichment (EPHB2)	phosphorylation enrichment (Hck)	SH2 binding enrichment (Grb2 SH2)	SH2 binding enrichment (SHP2-C SH2)	SH2 binding enrichment (c-Src SH2)
FKPGFYNLKEK [LAMA1_Y490_C485Y_YF]	0.601	0.466	0.513	0.434	0.466	0.61	0.689	0.473	0.499	0.566	0.616	0.396	0.489	0.915	0.887	0.383
SVTCTYCPALN [TP53_Y126_S127C]	0.84	0.545	0.564	0.38	0.581	0.394	0.779	0.683	0.629	0.611	0.46	0.413	0.495	1.24	1.35	1.19
LLAGLYRGQAL [FGFR4_Y390]	0.857	0.494	0.459	0.433	0.452	0.683	0.833	0.591	0.72	0.553	0.526	0.594	0.571	0.63	0.882	0.508
AKVKPYINGTS [IBTK_Y1064_V1065I]	0.471	0.343	0.297	0.295	0.294	0.274	0.503	0.404	0.369	0.358	0.408	0.274	0.359	0.999	1.05	0.737
TLNVRYESVQA [CEACAM7_Y236]	0.757	0.434	0.451	0.44	0.415	0.59	0.745	0.504	0.755	0.371	0.617	0.415	0.487	0.9	1.52	7.18
KLSFSYGRALQ [ALDOB_Y302]	0.9	0.388	0.519	0.548	0.417	0.413	0.994	0.694	0.847	0.407	0.642	0.483	0.46	1.04	0.955	0.592
VICRRYLVMQR [IL3RA_Y328]	1.24	0.595	0.786	0.456	0.342	0.46	1.05	0.618	0.894	0.531	0.74	0.69	0.487	0.816	0.416	0.354
HNLDYYKKTTN [FGFR3_Y648]	0.829	0.653	0.694	0.696	0.373	0.539	1.2	0.817	0.632	0.423	0.648	0.59	0.58	0.732	0.554	0.591
HPWPQYTTRAP [FNDC1_Y1281]	0.628	0.554	0.421	0.316	0.561	0.454	0.603	0.697	0.846	0.546	0.54	0.594	0.572	1.12	0.99	0.594
CPSLLYSPVSS [CAMKK2_Y128_P127L]	1.44	1.87	1.38	4.73	3.5	12.2	2.02	1.06	1.28	8.18	1.36	4.13	6.11	0.784	0.682	1.07
LGGSPYPRVPV [FGFR1_Y701_G703R]	0.435	0.429	0.47	0.356	0.426	0.444	0.55	0.483	0.507	0.4	0.471	0.426	0.412	0.784	0.836	0.469
SFPPTYRFERG [INPPL1_Y661_YF]	0.638	0.412	0.393	0.405	0.592	0.362	0.603	0.556	0.51	0.418	0.476	0.626	0.369	0.868	0.767	0.442
CVRTIYTIDGS [DCLK2_Y124_G119C]	0.891	1.32	0.447	0.746	1.97	0.505	1.06	0.799	0.807	0.481	1	0.628	0.683	0.702	0.432	0.529
HVIKFYGACSQ [RET_Y791_L790F]	1.5	0.759	0.871	0.956	0.564	0.576	1.75	1.4	1.3	0.545	1.08	0.851	0.779	0.833	0.773	0.546
NCLREYVAGRF [CRB1_Y711]	0.702	0.487	0.53	0.469	0.555	0.417	0.891	0.651	0.91	0.461	0.51	0.554	0.411	0.915	0.684	0.531
ADLLVYIKALN [HPRT1_Y81_D80V]	1.11	0.455	0.512	0.644	0.471	0.511	1.48	0.939	1.23	0.349	0.935	0.628	0.657	0.949	0.681	0.511
EDDPEYMRLRN [ADD2_Y31]	1.2	0.601	0.785	0.674	0.509	0.589	1.17	0.823	1.12	0.414	0.887	0.594	0.724	0.838	0.587	0.506

Sequence	phosphorylation enrichment (AncSZ)	phosphorylation enrichment (Fyn)	phosphorylation enrichment (FGFR1)	phosphorylation enrichment (EPHB1)	phosphorylation enrichment (c-Src)	phosphorylation enrichment (Fer (mouse))	phosphorylation enrichment (Fes)	phosphorylation enrichment (c-Abl (mouse))	phosphorylation enrichment (Jak2)	phosphorylation enrichment (MERTK)	phosphorylation enrichment (FGFR3)	phosphorylation enrichment (EPHB2)	phosphorylation enrichment (Hck)	SH2 binding enrichment (Grb2 SH2)	SH2 binding enrichment (SHP2-C SH2)	SH2 binding enrichment (c-Src SH2)
ECKHLYSRKEG [PTPN11_Y263_L261H]	0.451	0.407	0.463	0.406	0.388	0.4	0.579	0.458	0.419	0.388	0.397	0.285	0.329	0.995	0.711	0.717
GPGLVYGVANK [FLNB_Y1833]	0.531	1.59	0.648	0.421	2.83	0.51	0.689	0.545	0.718	0.422	0.483	0.405	3.44	0.732	0.643	0.551
GREAEYSEKHG [EPHB4_Y574_D576E]	0.681	0.354	0.418	0.514	0.396	0.398	0.697	0.631	0.59	0.368	0.544	0.487	0.444	0.742	0.476	0.442
QYQLKYSETPF [SIX6OS1_Y129]	1	0.591	0.598	0.743	0.519	0.43	1.1	0.808	0.7	0.838	0.769	0.907	0.722	0.868	0.598	0.607
KDHPDYKFQRR [SOX10_Y171_P175R_YF]	0.696	0.321	0.338	0.338	0.446	0.612	0.631	0.667	0.615	0.389	0.423	0.387	0.382	1	0.701	0.736
ANAYIYVVQLP [L1CAM_Y420]	1.33	0.841	1.25	0.875	1.04	0.478	1.17	0.734	1.14	1.53	1.18	0.735	0.714	1.37	1.44	0.814
EVEFQYPFRLH [SYP_Y73_E72Q]	1.03	0.445	0.475	0.64	0.506	0.524	1.23	0.885	1.1	0.443	0.709	0.498	0.473	0.913	0.462	0.489
GNEEAYGRSHI [FAM171B_Y522]	0.825	0.425	0.378	0.448	0.471	0.456	0.823	0.706	0.905	0.455	0.575	0.438	0.471	0.796	0.801	0.444
RSHLSYDVTPE [IQGAP3_Y1098_P1097S]	0.733	0.509	0.473	0.767	0.561	0.453	1.14	0.982	1.05	0.594	0.924	0.717	0.432	0.951	0.787	0.555
DTKPVYQNLRQ [BOD1_Y82_A81V]	0.596	1.07	0.511	0.549	1.07	0.507	0.752	0.708	0.621	0.533	0.456	0.44	1.29	20.8	1.65	3.29
DKTGEYPVPLT [ACADM_Y73_I78T]	0.863	0.487	0.426	0.502	0.448	0.397	0.902	0.57	0.649	0.44	0.578	0.438	0.382	0.924	0.522	0.474
FESPRYLQVRI [FANCA_Y488_H492R]	0.946	0.513	0.62	0.537	0.437	0.589	0.985	0.68	0.756	0.437	0.572	0.477	0.579	0.763	0.964	0.742
AVAFLYYKSIG [ADGRL4_Y301_V300L]	1.09	0.417	0.566	0.555	0.459	0.46	1.42	1.07	1.24	0.469	0.796	0.54	0.518	0.722	0.559	0.461
RGNKEYKEEKR [LENG1_Y96_E97K]	0.462	0.399	0.606	0.369	0.398	0.303	0.861	0.688	0.511	0.392	0.735	0.423	0.425	1.25	1.42	0.975
EVEPTYVVLFD [ERCC4_Y577_R576T_YF]	1.51	6.46	5.46	11.1	5.25	1.08	1.21	1.22	1.26	3.5	3.65	14.1	3.99	0.749	0.521	0.51
PTTKTYFPHFD [HBA1_Y43]	0.66	0.545	0.595	0.374	0.576	0.479	0.929	0.59	0.572	0.553	0.625	0.396	0.352	0.825	0.951	0.396
